This is an account of results in PMC4686857.

The target of this assay is β2 subunit of human LFA-1 expressed in BAF/LFA-1 cells (human) (UniProt P05107). Put plainly: co-IP; lysates of BAF/LFA-1 cells transfected with vector or Spa-1, ±CXCL12 for 1 min, immunoprecipitated with anti-β2, immunoblotted with anti-FLNa. For orientation: Immunoblotting shows a protein as a band on a membrane.
UniProt P05107, sequence (P05107 23-769): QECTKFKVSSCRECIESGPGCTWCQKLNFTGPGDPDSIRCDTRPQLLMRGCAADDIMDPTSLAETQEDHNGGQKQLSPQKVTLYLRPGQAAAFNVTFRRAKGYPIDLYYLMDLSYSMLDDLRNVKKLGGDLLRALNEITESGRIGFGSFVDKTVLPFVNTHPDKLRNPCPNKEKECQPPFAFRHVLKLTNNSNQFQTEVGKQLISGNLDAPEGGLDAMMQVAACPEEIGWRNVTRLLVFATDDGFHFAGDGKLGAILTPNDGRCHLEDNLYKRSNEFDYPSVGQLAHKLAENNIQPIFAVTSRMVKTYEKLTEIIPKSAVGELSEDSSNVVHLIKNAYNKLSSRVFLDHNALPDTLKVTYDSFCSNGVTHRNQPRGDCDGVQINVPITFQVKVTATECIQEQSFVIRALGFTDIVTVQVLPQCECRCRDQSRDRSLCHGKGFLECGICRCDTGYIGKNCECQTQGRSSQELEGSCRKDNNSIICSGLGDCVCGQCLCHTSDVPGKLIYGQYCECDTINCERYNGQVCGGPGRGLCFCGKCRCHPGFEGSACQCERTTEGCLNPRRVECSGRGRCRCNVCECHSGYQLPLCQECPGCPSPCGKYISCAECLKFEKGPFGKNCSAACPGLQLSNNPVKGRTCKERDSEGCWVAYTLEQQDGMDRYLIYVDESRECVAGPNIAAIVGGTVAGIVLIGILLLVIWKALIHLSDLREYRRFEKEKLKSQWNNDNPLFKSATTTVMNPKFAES

In turn, “endogenous FLNa of BAF/LFA-1 cells, Q8BTM8 1-2647” showed an FLNa co-precipitated with β2 after CXCL12 stimulation, Spa-1-expressing cells, percent of 64.7% and an FLNa co-precipitated with β2 after CXCL12 stimulation, control cells, percent of 25.2%.
